Measurements reported in US20210261685A1.

Target: human MerTK endogenously expressed on cells (SK-MEL-5 cells; human macrophages) (human) (UniProt Q12866)
Experiment: cell-based or functional assay

Sequence of human MerTK endogenously expressed on cells (SK-MEL-5 cells; human macrophages) (human) (Q12866 21-999 limits assumed): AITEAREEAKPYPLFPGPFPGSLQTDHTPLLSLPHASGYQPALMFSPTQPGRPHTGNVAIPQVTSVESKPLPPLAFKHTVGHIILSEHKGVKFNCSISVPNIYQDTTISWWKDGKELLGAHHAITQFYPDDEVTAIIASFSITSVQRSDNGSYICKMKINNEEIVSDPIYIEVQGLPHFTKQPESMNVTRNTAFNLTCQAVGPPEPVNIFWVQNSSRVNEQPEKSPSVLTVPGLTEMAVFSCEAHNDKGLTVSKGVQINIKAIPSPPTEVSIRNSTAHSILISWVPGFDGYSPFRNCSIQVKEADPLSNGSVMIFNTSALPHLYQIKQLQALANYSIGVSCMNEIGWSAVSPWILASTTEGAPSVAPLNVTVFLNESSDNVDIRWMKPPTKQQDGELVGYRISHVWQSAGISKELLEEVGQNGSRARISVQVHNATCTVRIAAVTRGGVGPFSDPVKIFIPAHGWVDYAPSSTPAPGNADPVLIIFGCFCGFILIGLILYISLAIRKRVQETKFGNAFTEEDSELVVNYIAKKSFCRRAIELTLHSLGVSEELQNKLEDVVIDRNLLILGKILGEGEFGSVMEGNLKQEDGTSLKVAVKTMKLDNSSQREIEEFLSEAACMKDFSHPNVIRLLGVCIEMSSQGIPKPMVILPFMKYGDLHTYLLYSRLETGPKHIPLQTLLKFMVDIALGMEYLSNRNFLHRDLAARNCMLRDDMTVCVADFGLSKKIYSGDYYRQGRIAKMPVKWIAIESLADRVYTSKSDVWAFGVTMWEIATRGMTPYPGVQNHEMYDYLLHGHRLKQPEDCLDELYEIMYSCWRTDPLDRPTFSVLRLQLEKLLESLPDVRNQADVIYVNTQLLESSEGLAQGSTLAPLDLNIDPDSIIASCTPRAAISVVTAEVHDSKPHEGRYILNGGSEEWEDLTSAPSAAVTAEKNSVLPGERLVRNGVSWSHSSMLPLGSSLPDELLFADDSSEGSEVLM

Gas6-mediated pAKT activity, average IC50, human M2c macrophages: 0.531 nM
B1: MTK-22 (antibody, human IgG1, V domains shown)
VH: QVQLQQPGADLVEPGASVKLSCKASGYTFTSYWMHWVKQRPGQGLEWIGEIDPSDSSSNYNQKFKGKATLTVDKSSSTAYMHLNSLTSEDSAVYYCARRYYYGSLYFDNWGQGTTLTVSS
VL: DVVMTQSHKFMSTSVGDRVSITCKASQDVGTAIAWYQQKPGQSPKLLIYWASTRHTGVPDRFTGSRSGTVFTLTISNVQSEDLADYFCQQYTSYPLTFGSGTKLEIK
